Consider 80 sequences from the supplement of paper PMC10724198.

± gives the standard deviation of the averaged measurements.
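Also: PSI is a weighted mean of sequencing reads over stability bins, variants kept only with over 10 reads, mCherry proximal and sfGFP distal, peptide attached via GGGS linker.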

The data set has as its system Saccharomyces cerevisiae. The data set is described as follows: protein stability index of tFT-peptide fusion (C-terminal peptide) (PSI (0-1 scale)); higher = more stable (slower turnover). Particulars: genetic background: wild type; temperature: 30 C.
The sequence TLSPGYTFPLSL registered a protein stability index of 0.743 ± 0.023.
TLTDCRKKCGRV displayed a protein stability index of 0.715 ± 0.097.
In turn, TLTPPPSTSLPP gave a protein stability index of 0.645 ± 0.067.
In the case of TLTSPFGSPTWD, the protein stability index worked out at 0.638 ± 0.31.
Regarding TLYHWELEPRNP, the protein stability index was found to be 0.664 ± 0.013.
For TLYLCALPALSR, the protein stability index is 0.615 ± 0.0075.
Take TNARDPPGPTPH: the protein stability index came out at 0.586 ± 0.06.
Sequence TNFGALNFDYAC came in with a protein stability index of 0.772 ± 0.028.
TNFSRCFLFRSW showed a protein stability index of 0.629 ± 0.025.
Turning to TNILMHGHKRSC, the protein stability index is 0.676 ± 0.13.
Regarding TNRIRGTARKVK, the protein stability index turned out to be 0.67 ± 0.055.
TNSKLTKERTEI yielded a protein stability index of 0.699 ± 0.049.
As to TNSVGCRIGGKQ, the protein stability index came out at 0.646 ± 0.02.
In turn, TNTRKIINMEKQ had a protein stability index of 0.717 ± 0.077.
Sequence TNVPVLTLMVYL yielded a protein stability index of 0.591 ± 0.089.
As to TPASCHQFGYQH, the protein stability index came out at 0.695 ± 0.026.
In turn, TPASPSPPPRPP had a protein stability index of 0.625 ± 0.019.
On to TPGDAVICSFYI, for which the protein stability index worked out at 0.642 ± 0.015.
TPGGDPLAPRQS: the protein stability index turned out to be 0.641 ± 0.061.
For TPKETGNNNMPN, the protein stability index was 0.677 ± 0.09.
TPMGFSRFLLSL displayed a protein stability index of 0.553 ± 0.03.
On to TPPFPSPLPPPS, for which the protein stability index came to 0.753 ± 0.013.
In the case of TPPLCAPPLPPP, the protein stability index is 0.7022 ± 0.0054.
On to TPPPPAPPHPPP, for which the protein stability index came out at 0.62 ± 0.036.
With TPPPPPPPLRAT, the protein stability index came to 0.638 ± 0.038.
For TPPRVYPLLRTS the value was 0.682 ± 0.016.
On to TPPVHLPPSSFS, for which the protein stability index came out at 0.744 ± 0.0023.
On to TPQPPPHSTYRC, for which the protein stability index came out at 0.702 ± 0.031.
As for TPRPPPSSFLSL, the protein stability index turned out to be 0.679 ± 0.05.
Regarding TPRYVGLIKINK, the protein stability index was 0.676 ± 0.03.
On to TPSDHRRLRGSN, for which the protein stability index was determined as 0.689 ± 0.045.
The sequence TPSLPAPGPPSP gave a protein stability index of 0.735 ± 0.11.
In turn, TPSPHPRYRASH registered a protein stability index of 0.703 ± 0.026.
TPSPLAILSSTC gave a protein stability index of 0.6888 ± 0.0047.
Turning to TPWIRGRTHPGR, the protein stability index was found to be 0.705 ± 0.016.
For the sequence TQLNTLSTINRT, the protein stability index was found to be 0.71 ± 0.11.
In the case of TQNRGLSSFRAF, the protein stability index worked out at 0.691 ± 0.035.
For TQVGLGSFYSLG the value was 0.697 ± 0.079; for TRALPIVLAVGP, 0.59 ± 0.026; for TRDTLNLMYKRL, 0.703 ± 0.046.
For TRDVPVTPQWGY the value was 0.671 ± 0.076; for TREITDAKVGNE, 0.7145 ± 0.0015.
For TRERRQAAGGGT the value was 0.665 ± 0.055; for TRGDCFAVRKAR, 0.702 ± 0.027.
In turn, TRLTSSGVGSVP returned a protein stability index of 0.683 ± 0.1.
TRLVRQLNNNLE: the protein stability index was found to be 0.667 ± 0.013.
Sequence TRNRKEWKIVIL gave a protein stability index of 0.594 ± 0.042.
The sequence TRNTNYNKKIKV showed a protein stability index of 0.6801 ± 0.0022.
The sequence TRPCFSGFNSPF displayed a protein stability index of 0.6545 ± 0.0019.
For TRPSPHRPSAST the value was 0.678 ± 0.054; for TRSRAQTEAHRR, 0.669 ± 0.032.
In the case of TRTTTQKNNATT, the protein stability index amounted to 0.717 ± 0.037.
The sequence TSHSSSGQAGKI had a protein stability index of 0.73 ± 0.033.
Sequence TSIDVLKCVYIQ showed a protein stability index of 0.5549 ± 0.0054.
For TSKGLGSRSAHP, the protein stability index amounted to 0.665 ± 0.044.
In turn, TSLALAFTFAIP registered a protein stability index of 0.703 ± 0.051.
For TSPPHLPASSHS, the protein stability index turned out to be 0.689 ± 0.014.
In turn, TSQHLQNHYKKI showed a protein stability index of 0.701 ± 0.0035.
Turning to TSRCQIGIALGG, the protein stability index is 0.695 ± 0.12.
TSRGGFCLGGVF came in with a protein stability index of 0.729 ± 0.018.
TSRLPPSPPPPP: the protein stability index was found to be 0.696 ± 0.14.
Regarding TSRSPLCTETIP, the protein stability index amounted to 0.736 ± 0.0074.
Regarding TSTGARTMFNPV, the protein stability index was 0.646 ± 0.061.
TSVVLPGPAVSR had a protein stability index of 0.732 ± 0.049.
The sequence TSWTTVYSSLLT yielded a protein stability index of 0.672 ± 0.088.
TTACLLERFTRV came in with a protein stability index of 0.664 ± 0.028.
Sequence TTDKNEAHVYSR had a protein stability index of 0.6931 ± 0.00098.
Sequence TTGGRGARVGGR yielded a protein stability index of 0.755 ± 0.08.
In turn, TTILCVARHIPH registered a protein stability index of 0.759 ± 0.089.
On to TTLFLPAGYACR, for which the protein stability index was found to be 0.707 ± 0.037.
For TTPKLQPAPAVP the value was 0.691 ± 0.059.
TTRKMGTRAPSL gave a protein stability index of 0.647 ± 0.095.
TTRPTRGRPSSG: the protein stability index is 0.682 ± 0.058.
In the case of TTSDSVVFWTLH, the protein stability index is 0.719 ± 0.0074.
TTSGCARLSHMV displayed a protein stability index of 0.709 ± 0.086.
TTSPRNMIIYYR showed a protein stability index of 0.627 ± 0.037.
For TTYFLASSEWAG the value was 0.7739 ± 0.003.
TVGSPTPRSSAP: the protein stability index was 0.707 ± 0.0098.
As to TVLRPVLCCFFV, the protein stability index came out at 0.698 ± 0.015.
For TVLSSQKPNNDR the value was 0.652 ± 0.023.
